# Laboratory results as given in the nanobody polyreactivity screen of Harvey et al. (2022).
# Test: yeast display, Sf9 membrane polyspecificity reagent, FACS + sequencing; frameworks hold sequencing errors
# In short: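 In a synthetic yeast display library (Saccharomyces cerevisiae BJ5465), nanobody expression was induced with galactose for 36–48 hours. FACS gates were set low and high (top ~1%) using anti-HA fluorescence for expression and streptavidin fluorescence for binding of the Sf9 membrane reagent. Each polyreactivity label is drawn from the gate of origin.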
row,Sequence,polyreactivity (PSR sort gate)
1,QVQLVESGGGLVQAGGSLRLSCAASGFIFYYNAMGWYRQAPGKERELVATITSGGSTNYADSVKGRFTISRDNAKNTVYLQMNSLKPEDTAVYYCAAGHSWVYGYDYWGQGTQVTVSS,low polyreactivity
2,QVQLVESGGGLVQAGGSLRLSCAASGFIFYYNARGWYRQAPGKERELVAGISWDGSTYYADSVKGRFTISRDNAKNTVYLQMNSLKPEDTAVYYCAAALLDDYFDLFIFGYWGQGTQVTVSS,low polyreactivity
3,QVQLVESGGGLVQAGGSLRLSCAASGFIFYYNTMGWYRQAPGKERELVASITWSGDTTYYADSVKGRFSISRDNAKNTVYLQMNSLIPEDTAVYYCAAVHYYPYRRYDYWGQGTQVTVSS,low polyreactivity
4,QVQLVESGGGLVQAGGSLRLSCAASGFIFYYYAMGWYIQAPGKERELVAAIDWDGDRTYYADSVKGRFTISRDNAKNTVYLQMNSLKPEDTAVYYCAAEWPVNFDYWGQGTQVTVSS,low polyreactivity
5,QVQLVESGGGLVQAGGSLRLSCAASGFIFYYYAMGWYRPAPGKERELVAAISRTGGRTYYADSVKWRFTISRDNAKKTVYLQMNSLKPEDTAVYYCAADQGNRFDYWGQGTQVTVSS,high polyreactivity
6,QVQLVESGGGLVQAGGSLRLSCAASGFIFYYYAMGWYRQAPGKERELVAAINRRGGSTYYADSVKGRFTISRDNAKNTVYLQMNSLKPEDTAVYYCAATYDGTFDYWGQGTQVTVSS,high polyreactivity
7,QVQLVESGGGLVQAGGSLRLSCAASGFIFYYYAMGWYRQAPGKERELVASISSSGGRTYYADSVKGRFTISRDNAKNTVYLQMNSLKPEDTAVYYCAARGPYGYDLLYYWGQGTQVTVSS,high polyreactivity
8,QVQLVESGGGLVQAGGSLRLSCAASGFIIARNAMGWYRQAPGKERELVAAISASGGRTYYADSVKGRFTISRDNAKNTVYLQMNSLKPEDTAVYYCAARRDGRSGSYNYWGQGTQVTVSS,high polyreactivity
9,QVQLVESGGGLVQAGGSLRLSCAASGFIIDVYAMGWYRHAPGKERELVAAISRSGGSTYYADSVKGRFTISRDNAKNSVYLQMNSLKPEDTAVYYCNAPGVTRAYLVGYDYWGQGSQVTVSS,low polyreactivity
10,QVQLVESGGGLVQAGGSLRLSCAASGFIIGSNGMGWYRQAPGKERELVAAISKNGGTTYYADSVKGRVTISRDNANNTVYLLMNSLKPADTAVYYCAAYKAVPNYYYWGQGTQVTVSS,high polyreactivity
11,QVQLVESGGGLVQAGGSLRLSCAASGFIIIGYFMGWYRQAPGKERELVAAITSSGGSTYYADSVKGRFTISRDNAKNTVYLQMNSLKPEDTAVYYCAARLYNSIYWGYYSWGPGTQVTVSS,low polyreactivity
12,QVQLVESGGGLVQAGGSLRLSCAASGFIIKFYAMGWYRQAPGKERELVATITISSGTTYYADSVKGRFTISRDTAKNTVYLQMNSLKPEDTAVYYCAASTLPAWPYDGPAGPRYDYWGQGTQVTVSS,low polyreactivity
13,QVQLVESGGGLVQAGGSLRLSCAASGFIIQGNAMGRYRQAPGKERELVAAISSSVSTYYADSVKGRFTISRDNAKNTVYLQMNSLKPEDTAVYYCNAGFPLSLWLGDYWGQGTQVTVSS,low polyreactivity
14,QVQLVESGGGLVQAGGSLRLSCAASGFIIQYYAMGWYRQAPGKERELVAVISLSGGRTSYADSVKGRFTISRDNAKNTVYLQMNSLKPEDTAVYYCARRVWSASNDYWGQGTQVTVSS,high polyreactivity
15,QVQLVESGGGLVQAGGSLRLSCAASGFIIYFNAMGWYRQAPGKERELVAAISASGGRTYYADSVKGRFTISRDNAKNTVYLQMNSLKPEDTAVYYCAADIRGYDYWGQGTQVTVSS,high polyreactivity
16,QVQLVESGGGLVQAGGSLRLSCAASGFIIYRYAMGWYRQAPGKEREVVATISSRGGSTYYADSVKGRFTISRDNAKNTVYLQMNSLKPEDTAVYYCNVRTRVKTTQSYDRNNYYWGQGTQVTVSS,high polyreactivity
17,QVQLVESGGGLVQAGGSLRLSCAASGFIIYSYAMGWYRQAPGKERELVAVISSRGGTTYYADSVKGRFTISRDNAKNTVYLQMNSLKPEDTAVYYCARDDYGTLVKLYVRCFNYWGQGTQVTVSS,low polyreactivity
18,QVQLVESGGGLVQAGGSLRLSCAASGFILAGYAMGWSRQAPGKERELVAAINSRGTRTYYADSVKGRFTISRDNAKNTVYLQMNSLKPEDTAVYYCAVHVWGTYGSWEYYYWGQGTQVTVSS,high polyreactivity
19,QVQLVESGGGLVQAGGSLRLSCAASGFILAGYAMGWYRQAPGKERELVAAINSRGTRTYYADSVKGRFTISRDNAKNTVYLQMNSLKPEDTAVYYCAVHVWGTYGSWEYYYWGQGTQVTVSS,high polyreactivity
20,QVQLVESGGGLVQAGGSLRLSCAASGFILDNYAMGWYRQAPGKERELVAAISGSGGSTYYADSVKGRFTISRDNAKNTVYLQMNSLKPEDTAVYYCAAYSIHYGYDAYDYWGQGTQVTVSS,high polyreactivity
21,QVQLVESGGGLVQAGGSLRLSCAASGFILDWYTMGWYRHAPGKEREFVAAITSRGGDTYYADSVKGRFTISRDNAKNTVYLQMNSLTPEDTAVYYCNKGFKLWPRYGYDYWGQGTQVTVSS,low polyreactivity
22,QVQLVESGGGLVQAGGSLRLSCAASGFILDYNTMGWYRQAPGKERELVAAISSSGDTTYYADSVKGRFTISRDNAKNTVYLQMNSLKPEDTAVYYCDREYGDGYEYWGQGTQVTVSS,low polyreactivity

row,Sequence,polyreactivity (PSR sort gate)
1,QVQLVESGGGLVQAGGSLRLSCAASGFILGANAMGWYRQAPGKERELVAAIRSSDGTTYYADSVKGRFTISRDNAKNTVYLQMNSLKPEDTAVYYCAADWRLLYEYWGQGTQVTVSS,high polyreactivity
2,QVQLVESGGGLVQAGGSLRLSCAASGFILKPNAMGWYRQAPGKERELVAAISWSSGSTYYADSVKGRFTISRDNAKNTVYLQMNRLKPEDTAVYYCAADYFVYPDDWYDYWGQGTQVTVSS,low polyreactivity
3,QVQLVESGGGLVQAGGSLRLSCAASGFILKYYAMGWYRQAPGKERELVAAISSSGGRTYYADSVKGRFTISRDNAKNTVYLQMNSLKPEDTAVYYCAARVIASRGRYGYWGQGTQVTVSS,high polyreactivity
4,QVQLVESGGGLVQAGGSLRLSCAASGFILLYYAMGWYRQAPVKERELVATITWSDGSTYYADSVKGRFTISRDNAKNTVYLQMNSLKPEDTAVYYCASPYKRYFYKGGDYWGQGTQVTVSS,low polyreactivity
5,QVQLVESGGGLVQAGGSLRLSCAASGFILNWYAMGWYRQAPGKERELVAAISWTTSDTYYADSVKGRFTISRDNAKNTVYLQMNSLKPEDTAVYYCNAKFYAYYVTFVLHYDYWGQGTQVTVSS,low polyreactivity
6,QVQLVESGGGLVQAGGSLRLSCAASGFILPIYAMGWYRQAPGKEREFVAAITWTGGSTYYADSVKGRFTISRDTAKNNVFLQIHSLKPEDTAVYYCAKRYYLRGYGRYYYWGQGTQVTVSS,high polyreactivity
7,QVQLVESGGGLVQAGGSLRLSCAASGFILRYNAMGWYRQAPGKERELVAAISYTGDRTYYADSVKGRFTISRDNAKNTVYLQMNSLKPEDTAVYYCNAVTYGSYYYWGQGTQVTVSS,high polyreactivity
8,QVQLVESGGGLVQAGGSLRLSCAASGFILSRYAMGWYRPAPGTERELVAAITSSGGSTYYADSVKGRFTISRDNAKNTVYLQMNSLKPEDTAVYYCAADRGRYSYNFWGQGTQVTVSS,high polyreactivity
9,QVQLVESGGGLVQAGGSLRLSCAASGFILTSNAMGWYRQAPGKERELVAAITRNGARTYYADSVKGRFTISRDNAKNTVYLQMNSLKPEDTAVYYCAAETVSYWWWGQDIPYYYWGQGTQVTVSS,high polyreactivity
10,QVQLVESGGGLVQAGGSLRLSCAASGFILTSYAMGWYRPEPGKERELVAAISSRGGRTYYADSVKGRFTISRDNAKNTVYLQMNSLKPEDTAVYYCNAVVYVVGDFDYWGQGTQVTVSS,high polyreactivity
11,QVQLVESGGGLVQAGGSLRLSCAASGFILTSYAMGWYRQAPGKERELVAAISSRGGRTYYADSVKGRFTISRDNAKNTVYLQMNSLKPEDTAVYFCNAVVYVVGDFDYWGQGTQVTVSS,high polyreactivity
12,QVQLVESGGGLVQAGGSLRLSCAASGFILVFYAMGWYRQAPGKERELVAAIDWSGTITYYADSVKGRFTISRDNAKKTVYLQINSLKPEDTAVYYCAADGEPFYDFDYWGQRTQVTVSS,high polyreactivity
13,QVQLVESGGGLVQAGGSLRLSCAASGFILYQNALGWYRQAPGKERELVAAITESDGITYYADSVKGRFTISRDNAKNTVYLQMNSLKPEDTAVYDCNTGFSYTYDYWGQGTQVTVSS,low polyreactivity
14,QVQLVESGGGLVQAGGSLRLSCAASGFILYRYAMGWDRQAPGKDRELVAAITRRGGSTYYADSVKGRFTISRDNAKNTVYLQMNSLKPEDTAVYYCNADIGVYGTSDLDYWGQGTQVTLSS,high polyreactivity
15,QVQLVESGGGLVQAGGSLRLSCAASGFISDDYAMGWYRQAPGKERELVAAISDSGVDTYYADSVKGRFTISRDNAKNTVYLLMNSLKPEDTAVYYCATLTYASNRYGYWGQGTHVTVSS,low polyreactivity
16,QVQLVESGGGLVQAGGSLRLSCAASGFISDWYAMGWYRQAPGTERELVATIDWIGGSTYADSVKGRFTISRDNAKNTVYLQMNSLKPEDTAVYYCAADSYFIAWYGAHYAYDYWGQGTQVTVSS,low polyreactivity
17,QVQLVESGGGLVQAGGSLRLSCAASGFISFDKAMGWYRQAPGKERELVAAIRSGGSTNYADSVKGLFTISRDNAKNTVYLQMNSLKPEDTAVYYCATDGSLRARSTSGWEYTNGDYWGQGTQVTVSS,low polyreactivity
18,QVQLVESGGGLVQAGGSLRLSCAASGFISPGYAMGWYRQAPGKERELVAAISVNGGDTYYADSVKGRFTISRDNAKNTVYLQMYSLKPEDTAVYYCAAERGVDDSARYGDYDYWGQGTQVTVSS,low polyreactivity
19,QVQLVESGGGLVQAGGSLRLSCAASGFISYYYAMGWYRQAPGKEREFVAAITSSGGSTRYADSVKGRFSISRDNATNTVYLQMNSLKPEDTAVYYCAAGNPYFWPYDYWGQGTQVTVSS,low polyreactivity
20,QVQLVESGGGLVQAGGSLRLSCAASGFIVTPYTMGWYRQAAGKERELVAAITDGSSTYYADSVKGRFTISRDNAKNTDYLQMNSLKPEETAVYYFNADGKPPYISWLYDYWGHGTQVTVSS,low polyreactivity
21,QVQLVESGGGLVQAGGSLRLSCAASGFIYFGNAMGWYRQAPGKERELVAAINSNGSSTYYADSVKGRFTISRDNAKNTVYFLMNSLQPEDTAVYYCAKKISVHEGAWPSNPDGDYWGQGTQVTVSS,low polyreactivity
